Results: article PMC10241913 (Nature Communications, 2023)
Positions count from the first letter of the chain named. Numbers in names are those of the source. No end group written: not given here.

T1: UBXD1-PUB (150-264) (human, UniProt Q9BZV1 150-264)
T1 construct: UBXD1 (UBXN6), human, PUB domain, residues 150-264; also called His6-UBXD1-PUB; source: E. coli Rosetta2, purified (Ni-NTA, thrombin cleavage, SEC); unlabelled or 15N-labelled; not shown: His6, N-terminal, cleaved
T1 sequence (looked up): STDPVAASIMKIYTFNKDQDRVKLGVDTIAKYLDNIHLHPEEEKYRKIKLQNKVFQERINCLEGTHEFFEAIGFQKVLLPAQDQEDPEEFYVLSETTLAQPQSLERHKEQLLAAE

B1: UBXD1-eUBX-C (269–441), for fluorescence anisotropy (domain or fragment, human, UniProt Q9BZV1 269-441, looked up)
chain: KLDRQRRVFQPSPLASQFELPGDFFNLTAEEIKREQRLRSEAVERLSVLRTKAMREKEEQRGLRKYNYTLLRVRLPDGCLLQGTFYARERLGAVYGFVREALQSDWLPFELLASGGQKLSEDENLALNECGLVPSALLTFSWDMAVLEDIKAAGAEPDSILKPELLSAIEKLL
modifications: Atto594 (NHS ester; the UBXD1 proteins were labeled for anisotropy)
notes: also called eUBX-C domain; not shown: GST, N-terminal, cleaved
B2: 5,6-FAM-p97-C10 peptide (peptide)
peptide: {5,6‑FAM}-TEDNDDDLYG
notes: p97/VCP C-terminal residues 797-806
B3: HR23b-UBL (1-78) (domain or fragment)
chain: not shown
notes: also called HR23b-UBL wt; 15N-HR23b-UBL; source: unlabelled or 15N-labelled; not shown: GST, N-terminal, cleaved
B4: UBXD1-wt (1-441) (natural protein, human, UniProt Q9BZV1 1-441, looked up)
chain: MKKFFQEFKADIKFKSAGPGQKLKESVGEKAHKEKPNQPAPRPPRQGPTNEAQMAAAAALARLEQKQSRAWGPTSQDTIRNQVRKELQAEATVSGSPEAPGTNVVSEPREEGSAHLAVPGVYFTCPLTGATLRKDQRDACIKEAILLHFSTDPVAASIMKIYTFNKDQDRVKLGVDTIAKYLDNIHLHPEEEKYRKIKLQNKVFQERINCLEGTHEFFEAIGFQKVLLPAQDQEDPEEFYVLSETTLAQPQSLERHKEQLLAAEPVRAKLDRQRRVFQPSPLASQFELPGDFFNLTAEEIKREQRLRSEAVERLSVLRTKAMREKEEQRGLRKYNYTLLRVRLPDGCLLQGTFYARERLGAVYGFVREALQSDWLPFELLASGGQKLSEDENLALNECGLVPSALLTFSWDMAVLEDIKAAGAEPDSILKPELLSAIEKLL
notes: also called UBXD1-fl; UBXN6; not shown: GST, N-terminal, cleaved
B5: UBXD1-wt (1–441), Atto594-labeled for fluorescence anisotropy with p97 (natural protein, human, UniProt Q9BZV1 1-441, looked up)
chain: B4 chain
modifications: Atto594 (NHS ester, ratio 1:1.2)
notes: not shown: GST, N-terminal, cleaved
B6: UBXD1-VIMx (1–441, DI11/12AA, RL62/63AA) (natural protein, human, UniProt Q9BZV1 1-441, looked up)
chain: B4 chain with D11A, I12A, R62A, L63A
modifications: Atto594 (NHS ester; the UBXD1 proteins were labeled for anisotropy)
notes: also called UBXD1-VIMx mutant; not shown: GST, N-terminal, cleaved
B7: UBXD1-His E368A/D373A (natural protein, human, UniProt Q9BZV1 1-441, looked up)
chain: B4 chain with E368A, D373A
notes: the mutant's name is printed in four ways; not shown: GST, N-terminal, cleaved
B8: UBXD1 E368A/D373A (full length, recombinant) (natural protein, human, UniProt Q9BZV1 1-441, looked up)
chain: B4 chain with E368A, D373A
notes: UBXD1 (UBXN6), human, mutant in the context of recombinant UBXD1-fl
B9: UBXD1 R307A (full length, recombinant) (natural protein, human, UniProt Q9BZV1 1-441, looked up)
chain: B4 chain with R307A
notes: as for B8
B10: UBXD1 R305A/R307A/V316A (full length, recombinant) (natural protein, human, UniProt Q9BZV1 1-441, looked up)
chain: B4 chain with R305A, R307A, V316A
notes: as for B8
B11: UBXD1 Q278A/F286A/L288A (full length, recombinant) (natural protein, human, UniProt Q9BZV1 1-441, looked up)
chain: B4 chain with Q278A, F286A, L288A
notes: as for B8
B12: UBXD1 R305A (full length, recombinant) (natural protein, human, UniProt Q9BZV1 1-441, looked up)
chain: B4 chain with R305A
notes: as for B8
B13: UBXD1 R274A (full length, recombinant) (natural protein, human, UniProt Q9BZV1 1-441, looked up)
chain: B4 chain with R274A
notes: as for B8
B14: UBXD1-ΔUBX-C (1-332), Atto594-labelled (domain or fragment, human, UniProt Q9BZV1 1-332, looked up)
chain: MKKFFQEFKADIKFKSAGPGQKLKESVGEKAHKEKPNQPAPRPPRQGPTNEAQMAAAAALARLEQKQSRAWGPTSQDTIRNQVRKELQAEATVSGSPEAPGTNVVSEPREEGSAHLAVPGVYFTCPLTGATLRKDQRDACIKEAILLHFSTDPVAASIMKIYTFNKDQDRVKLGVDTIAKYLDNIHLHPEEEKYRKIKLQNKVFQERINCLEGTHEFFEAIGFQKVLLPAQDQEDPEEFYVLSETTLAQPQSLERHKEQLLAAEPVRAKLDRQRRVFQPSPLASQFELPGDFFNLTAEEIKREQRLRSEAVERLSVLRTKAMREKEEQRGLR
modifications: Atto594 (NHS ester labelling)
notes: the methods say that the UBXD1 proteins were labelled with Atto594-NHS ester for anisotropy; not shown: GST, N-terminal, cleaved
B15: UBXD1-ΔUBX-C (1–332), recombinant, for fluorescence anisotropy (domain or fragment, human, UniProt Q9BZV1 1-332, looked up)
chain: B14 chain
modifications: Atto594 (NHS ester; the UBXD1 proteins were labeled for anisotropy)
notes: also called UBX deletion mutant of UBXD1; not shown: GST, N-terminal, cleaved

Experiments:
Details in all cases: both partners purified
p97-wt (1–806) = molecular target: T2, p97-wt (1–806) (UniProt P55072 1-806); assay: fluorescence polarisation; fluorescence anisotropy; Atto594-labeled UBXD1 proteins, p97 constructs titrated; 50 mM NaKPi pH 7.5, 25 °C; all fitted with stoichiometry n = 1
T2 construct: p97/VCP, residues 1-806; also called VCP; p97-fl; source: E. coli BL21 DE3 (T1r), purified (Ni-NTA, anion exchange)

UBXD1-wt (1-441) = molecular target: B4; assay: fluorescence polarisation; displacement titration: UBXD1 incubated with 0.1 µM 5,6-FAM-p97-C10 peptide to 50% saturation, concentration of p97 successively increased; competitive binding model; 50 mM NaKPi buffer, pH 7.5, 25 °C
UBXD1-PUB (150-264) = molecular target: T1, UBXD1-PUB (150-264); assay: NMR titration; 1H-15N-HSQC of 15N-HR23b-UBL (200 µM), UBXD1-PUB added stepwise to 400 µM; 50 mM sodium potassium phosphate, pH 7.5, 25 °C
p97 wild type (1-806) [1] = molecular target: T3, p97 wild type (1-806) (UniProt P55072 1-806); assay: fluorescence polarisation; displacement titration: UBXD1 incubated with 0.1 µM 5,6-FAM-p97-C10 peptide to 50% saturation, concentration of p97 successively increased; competitive binding model; 50 mM NaKPi buffer, pH 7.5, 25 °C
T3 construct: p97/VCP, residues 1-806; also called p97-wt; p97-fl; source: E. coli BL21 DE3 (T1r), purified (Ni-NTA, anion exchange)

p97-ΔC (1–766) = molecular target: T4, p97-ΔC (1–766) (UniProt P55072 1-766); assay: fluorescence polarisation; fluorescence anisotropy; Atto594-labeled UBXD1 proteins, p97 constructs titrated; 50 mM NaKPi pH 7.5, 25 °C; all fitted with stoichiometry n = 1
T4 construct: p97/VCP, residues 1-766; source: E. coli BL21 DE3 (T1r), purified (Ni-NTA, anion exchange)

p97-ΔD2-C (1–480) = molecular target: T5, p97-ΔD2-C (1–480) (UniProt P55072 1-480); assay: as above
T5 construct: p97/VCP, residues 1-480; The pull-down methods give the concentration of the p97 variant as hexamer; also called ND1L; source: E. coli BL21 DE3 (T1r), purified (Ni-NTA, anion exchange)

Ubiquitin-GST = molecular target: T6, Ubiquitin-GST (UniProt P0CG48 1-76); assay: pull-down; screening pulldown: 25 µM Ubiquitin-GST, 1 µM p97 (hexamer) and UBXD1 variant with GSH beads, 30 min, 4 °C, IP buffer; Coomassie stain
T6 construct: ubiquitin fused at its C-terminus to GST; also called Ub-GST; source: E. coli BL21 DE3 (T1r), purified; not shown: GST, C-terminal, kept

[2] = molecular target: T7, ubiquitin-GST fusion protein (Ub-GST) (UniProt P0CG48 1-76); assay: pull-down; 50 μM ubiquitin-GST, 2.5 μM p97 (hexamer) and 5 μM UBXD1 variant with GSH beads, 30 min, 4 °C, 50 mM Tris pH 7.4, 150 mM KCl, 1% Triton-X-100
T7 construct: source: E. coli BL21 DE3 (T1r), purified

[3] = molecular target: T7, ubiquitin-GST fusion protein (Ub-GST); assay: pull-down; screen: 25 μM ubiquitin-GST, 1 μM p97 (hexamer) and equal amounts of UBXD1 variant (released from GSH beads by PreScission) with GSH beads, 30 min, 4 °C, IP buffer
p97 wild type (1-806) [4] = molecular target: T3, p97 wild type (1-806); assay: fluorescence polarisation; fluorescence anisotropy titration of Atto594-labelled UBXD1 construct with p97 construct; 50 mM NaKPi buffer, pH 7.5, 25 °C; fitted with the stoichiometry 1:1

T4 sequence (P55072 1-766, stated change not applied): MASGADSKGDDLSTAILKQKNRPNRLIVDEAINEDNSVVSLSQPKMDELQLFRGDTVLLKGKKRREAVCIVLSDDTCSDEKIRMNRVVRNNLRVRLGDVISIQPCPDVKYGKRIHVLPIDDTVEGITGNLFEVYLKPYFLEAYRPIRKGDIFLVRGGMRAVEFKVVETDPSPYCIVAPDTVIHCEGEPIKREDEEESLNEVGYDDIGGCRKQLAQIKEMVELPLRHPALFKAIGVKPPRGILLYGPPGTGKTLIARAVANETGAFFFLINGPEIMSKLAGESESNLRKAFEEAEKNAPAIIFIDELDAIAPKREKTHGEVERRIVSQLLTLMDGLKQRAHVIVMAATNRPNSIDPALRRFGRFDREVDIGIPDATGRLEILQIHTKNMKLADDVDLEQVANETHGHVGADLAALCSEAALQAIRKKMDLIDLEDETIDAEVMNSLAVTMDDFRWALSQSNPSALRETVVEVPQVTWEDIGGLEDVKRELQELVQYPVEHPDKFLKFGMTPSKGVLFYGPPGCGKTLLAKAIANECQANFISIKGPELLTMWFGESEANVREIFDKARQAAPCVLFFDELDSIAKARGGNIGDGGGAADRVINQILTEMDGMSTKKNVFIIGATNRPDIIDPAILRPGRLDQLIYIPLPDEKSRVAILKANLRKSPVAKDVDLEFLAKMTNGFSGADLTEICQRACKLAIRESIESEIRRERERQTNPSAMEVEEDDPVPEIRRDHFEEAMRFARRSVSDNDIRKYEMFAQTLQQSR
T5 sequence (P55072 1-480, stated change not applied): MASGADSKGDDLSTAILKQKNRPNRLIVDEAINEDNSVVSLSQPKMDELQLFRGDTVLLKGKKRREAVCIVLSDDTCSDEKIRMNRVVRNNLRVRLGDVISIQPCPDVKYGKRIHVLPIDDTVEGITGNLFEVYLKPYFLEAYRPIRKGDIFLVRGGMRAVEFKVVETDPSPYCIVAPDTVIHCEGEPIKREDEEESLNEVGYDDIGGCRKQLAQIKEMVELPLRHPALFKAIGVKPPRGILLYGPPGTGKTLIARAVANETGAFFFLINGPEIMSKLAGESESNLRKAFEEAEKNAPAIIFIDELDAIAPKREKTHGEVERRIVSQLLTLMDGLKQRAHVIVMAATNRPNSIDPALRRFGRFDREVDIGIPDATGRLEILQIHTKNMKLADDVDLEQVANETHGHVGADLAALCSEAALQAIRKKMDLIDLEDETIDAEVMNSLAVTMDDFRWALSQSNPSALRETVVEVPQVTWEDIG
T2 sequence (P55072 whole entry, the tested form may be a part): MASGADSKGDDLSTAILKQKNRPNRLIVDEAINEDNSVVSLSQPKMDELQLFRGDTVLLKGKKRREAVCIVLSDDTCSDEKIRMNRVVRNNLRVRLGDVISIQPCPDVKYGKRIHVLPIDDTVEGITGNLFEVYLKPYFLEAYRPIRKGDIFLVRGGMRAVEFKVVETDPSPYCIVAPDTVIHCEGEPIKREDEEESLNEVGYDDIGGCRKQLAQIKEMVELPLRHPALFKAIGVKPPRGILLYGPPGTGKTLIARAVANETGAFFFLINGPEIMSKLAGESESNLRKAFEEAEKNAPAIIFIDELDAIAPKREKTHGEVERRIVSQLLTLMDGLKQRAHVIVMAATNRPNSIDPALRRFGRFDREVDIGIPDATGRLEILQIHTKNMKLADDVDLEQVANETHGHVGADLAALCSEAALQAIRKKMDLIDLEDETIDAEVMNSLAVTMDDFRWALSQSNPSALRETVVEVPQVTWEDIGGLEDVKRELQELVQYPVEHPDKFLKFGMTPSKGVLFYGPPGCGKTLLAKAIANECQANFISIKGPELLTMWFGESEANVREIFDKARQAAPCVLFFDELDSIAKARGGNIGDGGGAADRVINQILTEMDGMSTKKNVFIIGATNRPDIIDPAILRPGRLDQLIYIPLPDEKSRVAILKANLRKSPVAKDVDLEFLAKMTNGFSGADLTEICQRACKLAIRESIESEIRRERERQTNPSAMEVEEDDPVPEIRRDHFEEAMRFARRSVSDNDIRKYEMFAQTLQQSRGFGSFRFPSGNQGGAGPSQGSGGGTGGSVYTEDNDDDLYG
T3 sequence (P55072 whole entry, the tested form may be a part): as above

Binder: B1
Kd (p97-wt (1–806)): 131 ± 14 µM

Binder: B2
binding result (UBXD1-wt (1-441)): binds

Binder: B3
binding result (UBXD1-PUB (150-264)): binds

Binder: B4
Kd (p97 wild type (1-806) [1]): 1.1 ± 0.1 µM

Binder: B5
Kd (p97-wt (1–806)): 1.64 µM
Kd (p97-ΔC (1–766)): 11.9 ± 0.2 µM

Binder: B6
Kd (p97-ΔC (1–766)): 87 ± 1 µM
Kd (p97-ΔD2-C (1–480)): 466 ± 9 µM

Binder: B7
binding result (Ubiquitin-GST): binds

Binder: B8
binding result [2]: binds

Binder: B9
binding result [3]: binds

Binder: B10
binding result [3]: binds

Binder: B11
binding result [3]: binds

Binder: B12
binding result [3]: binds

Binder: B13
binding result [3]: binds

Binder: B14
Kd (p97 wild type (1-806) [4]): 5.5 ± 0.2 µM

Binder: B15
Kd (p97-ΔC (1–766)): 18.6 ± 0.7 µM
Kd (p97-ΔD2-C (1–480)): 26 ± 2 µM
